The results in this text go back to US20070248536A1.

Assay [1] has as its target human IgG Fc (human). Put plainly: method not given; given for comparison with the ELISA value.
The target of assay [2] is human IgG Fc (human). Put plainly: concentration-dependent ELISA, IgG Fc coated, apparent KD.
The target of assay [3] is human IgG Fc (human). As to the kind of experiment: SPR (BIACORE), value before the coupling to PE.

B1: Affilin variation SPC1-A7BB (designed binder)
chain: MGLISFSEDRAFQGRRYMCLTDCPNLQPYFSRCNSINVWSGCWMIYERPNYQGHQYFLRRGEYPDYQQWMGLSDSIRSCCLIPPHSGAYRMKIYDRDELRGQMSELTDDCLSVQDRFHLTEIHSLNVLEGSWILYEMPNYRGRQYLLRPGEYRRFLDWGAPNAKVGSLRRVMDLYLEHHHHHH
In the case of B1, the Kd with human IgG Fc (human) [1] is 280 nM.

B2: Affilin variation SPC1-A7_Cys (designed binder)
chain: MGLISFSEDRAFQGRRYMCLTDCPNLQPYFSRCNSINVWSGCWMIYERPNYQGHQYFLRRGEYPDYQQWMGLSDSIRSCCLIPPHSGAYRMKIYDRDELRGQMSELTDDCLSVQDRFHLTEIHSLNVLEGSWILYEMPNYRGRQYLLRPGEYRRFLDWGAPNAKVGSLRRVMDLYLESGGGGGGSCHHHHHHHHHH
As to B2, the values for the Kd with human IgG Fc (human) [2] and with human IgG Fc (human) [3] were 233 nM and 100 nM, respectively.
